Source: patent publication US20070041977A1 (AFFIMED THERAPEUTICS, published 2007)
No end group written: not given here.

Tests used:
[1] = molecular target: T1, 37 kDa/67 kDa LRP/LR on murine neuroblastoma cells (N2a) (murine, UniProt P14206 2-295); test: FACS on N2a cells
T1 construct: whole, on cells; also called LRP/LR on the surface of N2a cells

[2] = molecular target: T2, LRP peptide PSVPIQQFPTEDWSA (synthesized on a cellulose membrane); test: peptide array on cellulose membrane, scFv 1:5000
T2 peptide: PSVPIQQFPTEDWSA
Protocol: (§1) The N-terminus of each peptide was displaced by 3 amino acids in relation to the previous peptide, so that each peptide overlapped with the previous peptide by 12 amino acids. The synthesis of the peptides was carried out on a cellulose membrane.

[3] = molecular target: T3, LRP peptide TEDWSAAPTAQATEW (synthesized on a cellulose membrane); test: peptide array on cellulose membrane, scFv 1:5000
T3 peptide: TEDWSAAPTAQATEW
Protocol: as §1

[4] = molecular target: T4, recombinant human LRP::FLAG expressed in BHK cells transfected with SFV1-huLRP-FLAG (human, UniProt P08865 2-295); test: Western Blot of total extracts of transfected BHK cells
T4 construct: whole, on cells; also called human 37 kDa LRP::FLAG; rec; LRP::FLAG
Protocol: (§2) BHK cells were either not transfected (n.t.) or transfected in the manner known to the person skilled in the art in the specialty with the rec. Semliki forest virus (SFV) RNAs SFV1-huLRP-FLAG or SFV1-mol.RP::FLAG. The method of preparation of rec. SFV RNA, the transfection and the analysis by Western Blotting or immunofluorescence (FIG. 12) or FACS (FIG. 13) have already been described (Gauczynski et al., 2002; Gauczynski et al., 2001b). 24 h post-transfection, total cell extracts were analyzed by Western Blotting. […] The control used was the anti-LRP antibody mLRP43512 (A), and an anti-mouse IgG-HRP-coupled secondary antibody. As a loading control, the β-actin level was determined. To this end, an anti-β-actin antibody (Chemicon) was employed. Detection was carried out by chemiluminescence (Western Lightning, NEN). […] LRP::FLAG.

[5] = molecular target: T5, recombinant murine LRP::FLAG expressed in BHK cells transfected with SFV1-moLRP::FLAG (murine, UniProt P14206 2-295); test: as above
T5 construct: whole, on cells; also called muLRP-FLAG; murine 37 kDa LRP::FLAG
Protocol: as §2

[6] = molecular target: T6, LRP peptide EKAVTKEEFQGEWTA (also: synthesized on a cellulose membrane); test: peptide array on cellulose membrane, scFv 1:5000
T6 peptide: EKAVTKEEFQGEWTA
Protocol: as §1

[7] = molecular target: T7, LRP peptide VTKEEFQGEWTAPAP (also: synthesized on a cellulose membrane); test: peptide array on cellulose membrane, scFv 1:5000
T7 peptide: VTKEEFQGEWTAPAP
Protocol: as §1

Measured: binding result

B1: single chain antibody N3 selected from the naive scFv bank (scFv)
scFv: EVQLVESGGGVVQPGRSLRLSCAASGFTFSSYGMHWVRQAPGKGLEWVAVIWYDGSNKYYADSVKGRFTISRDNSKNTLYLQMNSLRAEDTAVYYCATIPRSSFYYGMDVWGQGTTVTVSSGSASAPTLKLEEGEFSEARVQPVLTQPPSASGTPGQRVTISCSGSRSNIGSNTVNWYQQLPGTAPKLLIYGNNQRPSGVPERFSGSKSGTSASLAISGLQSEDEADYYCAAWDDSLTGVLFGGGTKLTVLGQPKAAPSVTLFPPSSAAAGSHHHHHH
notes: VH and VL joined by a peptide linker (YOL), with a C-terminal histidine tag; also called scFv N3; scFvN3
binds: [1] | [2] | [3] | [4] | [5]

B2: single chain antibody S18 selected from the synthetic scFv bank (scFv)
scFv: QVQLQESGGGLVQPGGSLRLSCAASGFMFSRYAMSWVRQAPGKGPEWVSGISGSGGSTYYADSVKGRFTVSRDNSKNTLYLQMNSLRAEDTAVYYCARHPGFWHFDYWGQGTLVTVSSGSASAPKLEEGEFSEARVSELTQDPAVSVALGQTVRITCQGDSLRNFYASWYQQKPGQAPTLVIYGLSKRPSGIPDRFSASSSGNTASLTITGAQAEDEADYYCNSRDRSGNHVNVLFGGGTKLTVLRQPKAAPSVTLFPPSSAAAGSHHHHHH
notes: VH and VL joined by a peptide linker (YOL), with a C-terminal histidine tag; also called scFv S18; scFvS18
binds: [1] | [6] | [7] | [4] | [5]
